B1: G13 Switch Region 2 peptide (G13SR2pep), Val-Gly-Gly-Gln-Arg-Ser-Glu-Arg-Lys-Arg-Trp-Phe-Glu-Cys-Phe-Asp-Ser (peptide)
peptide: VGGQRSERKRWFECFDS
notes: how it was coupled is not described; also called G13SR2pep peptide; Gα13 SR2 peptide
B2: G13SR2-Random Peptide, Gly-Phe-Asp-Glu-Trp-Glu-Val-Ser-Phe-Lys-Gly-Cys-Gln-Arg-Arg-Ser-Arg (peptide)
peptide: GFDEWEVSFKGCQRRSR
notes: Control peptide immobilised on a peptide column; also called Random Peptide control

Legend:
[1] = target: T1, kindlin 3 (72 kD) from solubilized human platelets (human, UniProt Q86UX7 1-667); assay: peptide affinity column with solubilized human platelets, immunoblot of eluate
T1 construct: mature; Native cytoplasmic protein from solubilized human platelets
T1 sequence (Q86UX7 whole entry): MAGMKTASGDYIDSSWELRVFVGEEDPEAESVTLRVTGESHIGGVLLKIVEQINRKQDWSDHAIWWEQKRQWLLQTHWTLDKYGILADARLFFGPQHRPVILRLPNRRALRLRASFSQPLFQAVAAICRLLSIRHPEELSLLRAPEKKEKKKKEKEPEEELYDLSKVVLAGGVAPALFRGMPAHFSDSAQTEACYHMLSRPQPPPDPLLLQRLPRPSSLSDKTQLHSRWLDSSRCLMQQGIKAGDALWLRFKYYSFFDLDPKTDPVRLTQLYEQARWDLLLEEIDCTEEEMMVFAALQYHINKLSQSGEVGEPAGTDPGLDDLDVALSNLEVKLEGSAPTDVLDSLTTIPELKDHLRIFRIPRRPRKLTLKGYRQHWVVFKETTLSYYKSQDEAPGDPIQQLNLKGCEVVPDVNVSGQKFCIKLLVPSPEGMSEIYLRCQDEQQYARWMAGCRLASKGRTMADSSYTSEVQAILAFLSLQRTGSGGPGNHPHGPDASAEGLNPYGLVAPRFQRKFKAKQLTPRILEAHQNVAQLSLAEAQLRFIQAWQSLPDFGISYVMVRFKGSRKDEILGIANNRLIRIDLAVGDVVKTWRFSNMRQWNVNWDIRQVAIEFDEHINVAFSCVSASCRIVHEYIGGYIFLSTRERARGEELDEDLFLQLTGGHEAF
Description: (§1) On this basis, subsequent experiments examined whether G₁₃SR2ₚₑₚ peptide (SEQ ID NO:5) does indeed directly interact with α11bβ₃ and/or one of its associated proteins in human platelets. In this respect, platelet α11bβ₃ integrin is known to exist in a complex with two cytoplasmic proteins, i.e., talin and kindlin-3 (Tadokoro, et al. (2003) Science 302:103-6; Moser, et al. (2008) Nature Med. 14:325-30). To determine whether G₁₃SR2ₚₑₚ, (SEQ ID NO:5) interacts with any of these proteins (or with the entire α11bβ₃, talin, kindlin-3 complex), peptide affinity columns using G₁₃SR2ₚₑₚ (SEQ ID NO:5) were employed. The affinity purified protein(s) from solubilized human platelets that specifically bound to the G₁₃SR2ₚₑₚ peptide were eluted, and analyzed by western blot for α11bβ₃ integrin, talin and kindlin-3. In similar experiments, the eluates from a peptide column using the G₁₃SR2-Random Peptide (SEQ ID NO:9) were also analyzed. […] This was supported by similar experiments using talin antibodies and the kindlin 3 antibody (Abcam).

[2] = target: T2, α11bβ3-talin-kindlin 3 complex from solubilized human platelets (human, UniProt P08514 32-1039; P05106 27-788; Q9Y490 1-2541; Q86UX7 1-667); assay: as above
T2 construct: mature
Description: as §1

[3] = target: T3, α11bβ3 integrin (platelet integrin αIIbβ3) from solubilized human platelets (human, UniProt P08514 32-1039; P05106 27-788); assay: as above
T3 construct: mature; Native protein from solubilized human platelets, detected by immunoblot with Abcam antibodies
Description: as §1

[4] = target: T1, kindlin 3 (72 kD) from solubilized …; assay: peptide affinity column with solubilized human platelets, western blot of eluates
Description: as §1

[5] = target: T3, α11bβ3 integrin (platelet integrin …); assay: as above
Description: as §1

| Binder | binding result [1] | binding result [2] | binding result [3] | binding result [4] | binding result [5] |
| --- | --- | --- | --- | --- | --- |
| B1 | binds | binds | binds | – | – |
| B2 | – | – | – | no binding | no binding |

Reference: patent US20130040886A1 (BOARD OF TRUSTEES OF THE UNIVERSITY OF ILLINOIS, published 2013)
